Earlier results, collected in PMC4472561 (The FEBS journal, 2015).
pKd: −log10 of the molar value.

What was measured:
[1] = test system: CD8^+ cytotoxic effector memory T cells; conditions: in words; ref [25]
neural progenitor cells = conditions: in words; ref [24]
Kv1.1 = Kv1.1 (UniProt Q09470)
UniProt Q09470, sequence (Q09470 whole entry): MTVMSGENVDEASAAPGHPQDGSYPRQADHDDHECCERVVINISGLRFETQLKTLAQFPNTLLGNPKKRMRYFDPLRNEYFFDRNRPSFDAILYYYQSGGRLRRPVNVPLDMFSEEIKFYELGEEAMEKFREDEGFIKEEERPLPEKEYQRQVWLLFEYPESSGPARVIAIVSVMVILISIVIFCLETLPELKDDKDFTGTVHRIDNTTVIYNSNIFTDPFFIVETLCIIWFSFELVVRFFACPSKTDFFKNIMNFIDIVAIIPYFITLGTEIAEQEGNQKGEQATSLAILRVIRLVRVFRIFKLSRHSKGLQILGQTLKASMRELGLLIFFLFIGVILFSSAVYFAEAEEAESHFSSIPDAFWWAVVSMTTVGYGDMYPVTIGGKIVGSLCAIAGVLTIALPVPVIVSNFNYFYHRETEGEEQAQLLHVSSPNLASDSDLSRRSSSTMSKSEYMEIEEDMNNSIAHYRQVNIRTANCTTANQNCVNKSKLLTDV

Substance: ChTx
- proliferation of CD8+ cytotoxic effector memory T cells and secretion of granzyme B [1]: blocked the proliferation of CD8^+ cytotoxic effector memory T cells and their secretion of granzyme B

Substance: MgTx (TIINVKCTSPKQCLPPCKAQFGQSAGAKCMNGKCKCYPH; UniProt P40755 1-39, looked up)
- differentiation of neural progenitor cells into neurons (neural progenitor cells): increased the differentiation of neural progenitor cells into neurons and enhanced neuron-regeneration
- proliferation of CD8+ cytotoxic effector memory T cells and secretion of granzyme B [1]: blocked the proliferation of CD8^+ cytotoxic effector memory T cells and their secretion of granzyme B

Substance: ShK (from UniProt P29187)
- pKd (Kv1.1): 10.80
